Measured values: paper PMC7774954 (PLoS ONE, 2020)
Where no end group is shown, it is not given here. The star is where a group is joined. Biotin = O=C1N[C@H]2[C@H](CS[C@H]2CCCCC(=O)*)N1; TTDS = NCCCOCCOCCOCCCNC(=O)CCC(=O)*

Legend:
NHERF2-2 = molecular target: T1, NHERF2-2 (human, UniProt Q15599 150-230); experiment: holdup assay; biotinylated PBM peptide saturating streptavidin resin (biotin resin as reference); tag-PDZ at 4 uM in crude E. coli lysate, 15 min, filtration, free tag-PDZ by capillary electrophoresis; singlicate; BI cut-off 0.20; BI converted into KD with the peptide concentration back-calculated from FP; conditions: one partner purified
T1 construct: PDZ domain number 2 of human NHERF2; also called NHERF2 PDZ dom 2; source: E. coli, in crude cell lysate; not shown: His, N-terminal, kept
T1 sequence (Q15599 150-230): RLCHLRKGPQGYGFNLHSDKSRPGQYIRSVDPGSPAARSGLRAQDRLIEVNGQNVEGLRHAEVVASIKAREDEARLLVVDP

NHERF2-1 = molecular target: T2, NHERF2-1 (human, UniProt Q15599 11-90); experiment: as above; conditions: one partner purified
T2 construct: PDZ domain number 1 of human NHERF2; also called NHERF2 PDZ dom 1; source: E. coli, in crude cell lysate; not shown: His, N-terminal, kept
T2 sequence (Q15599 11-90): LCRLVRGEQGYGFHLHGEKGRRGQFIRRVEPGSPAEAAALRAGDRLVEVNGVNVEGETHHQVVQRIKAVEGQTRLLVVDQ

MAGI2-3 = molecular target: T3, MAGI2-3 (human, UniProt Q86UL8 605-683); experiment: as above; conditions: one partner purified
T3 construct: PDZ domain number 3 of human MAGI2; also called MAGI2 PDZ dom 3; source: E. coli, in crude cell lysate; not shown: His, N-terminal, kept
T3 sequence (Q86UL8 605-683): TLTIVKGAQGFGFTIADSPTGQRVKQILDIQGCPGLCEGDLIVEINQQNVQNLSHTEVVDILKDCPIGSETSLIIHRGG

PARD3-3 = molecular target: T4, PARD3-3 (human, UniProt Q8TEW0 590-677); experiment: as above; conditions: one partner purified
T4 construct: the text says PARD3-1; also called PARD3 PDZ dom 3; source: E. coli, in crude cell lysate; not shown: His, N-terminal, kept
T4 sequence (Q8TEW0 590-677): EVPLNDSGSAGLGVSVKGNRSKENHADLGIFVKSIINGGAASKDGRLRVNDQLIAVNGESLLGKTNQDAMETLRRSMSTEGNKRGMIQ

PTPN13-2 = molecular target: T5, PTPN13-2 (human, UniProt Q12923 1368-1452); experiment: as above; conditions: one partner purified
T5 construct: PDZ domain number 2 of human PTPN13; also called PTPN13 PDZ dom 2; source: E. coli, in crude cell lysate; not shown: His, N-terminal, kept
T5 sequence (looked up): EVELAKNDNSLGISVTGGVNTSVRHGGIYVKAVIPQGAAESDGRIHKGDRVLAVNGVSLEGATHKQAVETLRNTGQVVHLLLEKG

MAGI3-2 = molecular target: T6, MAGI3-2 (human, UniProt Q5TCQ9 410-492); experiment: as above; conditions: one partner purified
T6 construct: PDZ domain number 2 of human MAGI3; also called MAGI3 PDZ dom 2; source: E. coli, in crude cell lysate; not shown: His, N-terminal, kept
T6 sequence (Q5TCQ9 410-492): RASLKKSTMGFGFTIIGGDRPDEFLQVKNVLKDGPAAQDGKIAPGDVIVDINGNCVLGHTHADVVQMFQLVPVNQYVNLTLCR

DLG1-2 = molecular target: T7, DLG1-2 (human, UniProt Q12959 319-405); experiment: as above; conditions: one partner purified
T7 construct: PDZ domain number 2 of human DLG1; also called DLG1 PDZ dom 2; source: E. coli, in crude cell lysate; not shown: His, N-terminal, kept

PTPN13-4 = molecular target: T8, PTPN13-4 (human, UniProt Q12923 1788-1868); experiment: as above; conditions: one partner purified
T8 construct: PDZ domain number 4 of human PTPN13; also called PTPN13 PDZ dom 4; fourth PDZ domain of PTPN13; source: E. coli, in crude cell lysate; not shown: His, N-terminal, kept
T8 sequence (looked up): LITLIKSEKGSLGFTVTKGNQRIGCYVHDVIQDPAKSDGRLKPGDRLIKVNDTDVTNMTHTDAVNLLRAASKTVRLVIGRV

MAGI2-2 = molecular target: T9, MAGI2-2 (human, UniProt Q86UL8 426-510); experiment: as above; conditions: one partner purified
T9 construct: PDZ domain number 2 of human MAGI2; also called MAGI2 PDZ dom 2; source: E. coli, in crude cell lysate; not shown: His, N-terminal, kept
T9 sequence (Q86UL8 426-510): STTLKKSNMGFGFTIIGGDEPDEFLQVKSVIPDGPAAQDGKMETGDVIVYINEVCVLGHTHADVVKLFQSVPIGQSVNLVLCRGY

MAGI1-3 = molecular target: T10, MAGI1-3 (human, UniProt Q96QZ7 643-721); experiment: as above; conditions: one partner purified
T10 construct: PDZ domain number 3 of human MAGI1; also called MAGI1 PDZ dom 3; source: E. coli, in crude cell lysate; not shown: His, N-terminal, kept
T10 sequence (Q96QZ7 643-721): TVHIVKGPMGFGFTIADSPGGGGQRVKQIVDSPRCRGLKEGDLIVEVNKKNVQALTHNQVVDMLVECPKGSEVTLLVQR

SYNJ2BP PDZ domain = molecular target: T11, SYNJ2BP PDZ domain (human, UniProt P57105 13-100); experiment: fluorescence polarisation; direct: N-terminally fluorescein-labelled PBM peptide (tracer) with increasing amounts of MBP-PDZ; 384-well plates; triplicate; direct binding model (ProFit); conditions: both partners purified
T11 sequence (looked up): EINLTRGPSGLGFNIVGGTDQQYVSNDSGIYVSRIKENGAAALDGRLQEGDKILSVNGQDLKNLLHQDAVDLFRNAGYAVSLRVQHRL

[1] = molecular target: T12, NHERF3-1, first PDZ domain of NHERF3 (human, UniProt Q5T2W1 9-90); experiment: as above; conditions: both partners purified
T12 sequence (looked up): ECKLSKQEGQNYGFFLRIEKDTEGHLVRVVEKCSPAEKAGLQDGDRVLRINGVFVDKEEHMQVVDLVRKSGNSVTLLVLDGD

[2] = molecular target: T13, MAGI2-2, second PDZ domain of MAGI2 (human, UniProt Q86UL8 426-510); experiment: as above; conditions: both partners purified
T13 construct: not shown: His6, N-terminal, kept; MBP, N-terminal, kept
T13 sequence (Q86UL8 426-510): as the sequence (Q86UL8 426-510) above

[3] = molecular target: MAGI1-2, second PDZ domain of MAGI1 (human, UniProt Q96QZ7 472-554); experiment: as above; conditions: both partners purified
MAGI1-2, second PDZ domain of MAGI1, sequence (Q96QZ7 472-554): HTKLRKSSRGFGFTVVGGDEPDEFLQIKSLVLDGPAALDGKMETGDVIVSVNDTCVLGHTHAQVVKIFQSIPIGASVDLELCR

[4] = molecular target: T14, SCRIB-3, third PDZ domain of SCRIB (human, UniProt Q14160 1004-1093); experiment: as above; conditions: both partners purified
T14 sequence (looked up): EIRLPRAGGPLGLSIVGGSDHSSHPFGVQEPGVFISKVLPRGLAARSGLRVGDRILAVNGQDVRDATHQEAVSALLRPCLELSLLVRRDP

[5] = molecular target: T15, PDZRN3-1, first PDZ domain of PDZRN3 (human, UniProt Q9UPQ7 249-339); experiment: as above; conditions: both partners purified
T15 sequence (looked up): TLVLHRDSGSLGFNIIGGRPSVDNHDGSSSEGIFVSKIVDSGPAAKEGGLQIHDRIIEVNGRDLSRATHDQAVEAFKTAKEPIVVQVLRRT

[6] = molecular target: DLG4-3, third PDZ domain of DLG4 (human, UniProt P78352 313-393); experiment: as above; conditions: both partners purified
DLG4-3, third PDZ domain of DLG4, sequence (P78352 313-393): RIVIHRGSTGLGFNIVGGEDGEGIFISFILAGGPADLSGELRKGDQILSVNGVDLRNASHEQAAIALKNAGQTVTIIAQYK

[7] = molecular target: T16, PDZRN4-1, first PDZ domain of PDZRN4 (human, UniProt Q6ZMN7 224-314); experiment: as above; conditions: both partners purified
T16 sequence (looked up): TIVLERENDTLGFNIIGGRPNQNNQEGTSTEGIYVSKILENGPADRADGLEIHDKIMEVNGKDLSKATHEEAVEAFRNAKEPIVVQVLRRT

B1: PTEN_13 (peptide, UniProt P60484 391-403, looked up)
peptide: {Biotin-TTDS}-PFDEDQHTQITKV
notes: also called 13-mer PTEN peptide; extended wild-type peptide; source: synthetic peptide, bought: JPT Innovative Peptide Solutions (70%-80% purity)
NHERF2-2
  Kd: 125 µM
NHERF2-1
  Kd: 134 µM
MAGI2-3
  Kd: 30 µM
PARD3-3
  Kd: 96 µM
PTPN13-2
  Kd: 16 µM
MAGI3-2
  Kd: 21 µM
DLG1-2
  Kd: 81 µM
PTPN13-4
  Kd: 36 µM
MAGI2-2
  Kd: 149 µM
MAGI1-3
  Kd: 10 µM

B2: f16E6, fluorescein-labelled HPV16 E6 PBM peptide (peptide)
peptide: fluorescein-RTRRETQL
notes: source: synthetic peptide
SYNJ2BP PDZ domain
  Kd: 2280 nM
[1]
  Kd: 2340 nM
[2]
  Kd: 2770 nM
[3]
  Kd: 500 nM
[4]
  Kd: 1470 nM
[5]
  Kd: 1080 nM
[6]
  Kd: 7.27 µM
[7]
  Kd: 2930 nM
